One molecule from patent EP4810058A1 (Shanghai Henlius Biotech, Inc., dated 2026) can be followed below.

The target in one assay is T1, HER2-Fc protein (human, UniProt P04626 23-652).
T1 construct: Bought reagent (Sino Biological, PA, USA, Cat. No. 10004-H02H, LC10JA1203); not shown: Fc part of the bought fusion
As to the kind of experiment: SPR (Biacore CM5), antibody immobilized by amine coupling, HER2-Fc injected. For orientation: Surface plasmon resonance follows binding to a sensor surface in real time, without labels.

The target of assay [1] is T2, HER2 on gastric cancer cells NCI-N87 and SNU216 (human, UniProt P04626 23-1255).
T2 construct: whole, on cells; also called CD340; erbB2
As to the kind of experiment: HER2 internalization assay on NCI-N87 and SNU216 cells, pHrodo dye, flow cytometry. Background: A flow cytometer gives signals particle by particle.

B1: Second anti-HER2 antibody (antibody, human IgG1, kappa, V domains shown)
VH: EVQLVESGGGLVQPGGSLRLSCAASGFTFSSYTMSWVRQAPGKGLEWVAYISAGGGSTYYPDTVKGRFTISRDNAKNSLYLQMNSLRAEDTAVYYCARHLGGTASFDYWGQGTLVTVSS
VL: DIQMTQSPSSLSASVGDRVTITCLASQTIGTWLAWYQQKPGKAPKLLIYVATSLADGVPSRFSGSGSGTDFTLTISSLQPEDFATYYCQQNAYAPWTFGQGTKVEIKR
notes: also called second antibody; hz1E11-133
In the case of B1, the binding result (with HER2-Fc protein; in assay [1]) was “binds” each time.
